Laboratory results reported in patent publication US20230042694A1 (SUZHOU CUREMED BIOMEDICAL TECHNOLOGY, published 2023).

B1: recombinant polypeptide CRBN-K19 (N-CRBN (second polypeptide)-linker peptide-K19 (first polypeptide)-C) (other)
chain: MGGLDYKDDDDKASAGEGDQQDAAHNMGNHLPLLPAESEEEDEMEVEDQDSKEAKKPNIINFDTSLPTSHTYLGADMEEFHGRTLHDDDSCQVIPVLPQVMMILIPGQTLPLQLFHPQEVSMVRNLIQKDRTFAVLAYSNVQEREAQFGTTAEIYAYREEQDFGIEIVKVKAIGRQRFKVLELRTQSDGIQQAKVQILPECVLPSTMSAVQLESLNKCQIFPSKPVSREDQCSYKWWQKYQKRKFHCANLTSWPRWLYSLYDAETLMDRIKKQLREWDENLKDDSLPSNPIDFSYRVAACLPIDDVLRIQLLKIGSAIQRLRCELDIMNKCTSSGSGSGSGMDLGKKLLEAARAGQDDEVRILMANGADVNASDRGGGTPLHLAAAGGHLEIVEVLLKRGADVSAADLHGQSPLHLAAMVGHLEIVEVLLKYGADVNAKDTMGATPLHLAARSGHLEIVEELLKNGADMNAQDKFGKTTFDISTDNGNEDLAEILQKL
B2: recombinant polypeptide K19-ASB1 (N-K19 (first polypeptide)-linker peptide-ASB1 (second polypeptide)-C) (other)
chain: MDLGKKLLEAARAGQDDEVRILMANGADVNASDRGGGTPLHLAAAGGHLEIVEVLLKRGADVSAADLHGQSPLHLAAMVGHLEIVEVLLKYGADVNAKDTMGATPLHLAARSGHLEIVEELLKNGADMNAQDKFGKTTFDISTDNGNEDLAEILQKLSGSGSGSGVKWESLGPESRGRRKVDPEALQVFKEARSVPRTLLCLCRVAVRRALGKHRLHLIPSLPLPDPIKKFLLHEGS
B3: recombinant polypeptide SKP2-K19 (N-SKP2 (second polypeptide)-linker peptide-K19 (first polypeptide)-C) (other)
chain: MGGLDYKDDDDKASHRKHLQEIPDLSSNVATSFTWGWDSSKTSELLSGMGVSALEKEEPDSENIPQELLSNLGHPESPPRKRLKSKGSDKDFVIVRRPKLNRENFPGVSWDSLPDELLLGIFSCLCLPELLKVSGVCKRWYRLASDESLWQTLDLTGKNLSGSGSGSGMDLGKKLLEAARAGQDDEVRILMANGADVNASDRGGGTPLHLAAAGGHLEIVEVLLKRGADVSAADLHGQSPLHLAAMVGHLEIVEVLLKYGADVNAKDTMGATPLHLAARSGHLEIVEELLKNGADMNAQDKFGKTTFDISTDNGNEDLAEILQKL
B4: recombinant polypeptide βTrCP-K19 (N-βTrCP (second polypeptide)-linker peptide-K19 (first polypeptide)-C) (other)
chain: MGGLDYKDDDDKASDPAEAVLQEKALKFMNSSEREDCNNGEPPRKIIPEKNSLRQTYNSCARLCLNQETVCLASTAMKTENCVAKTKLANGTSSMIVPKQRKLSASYEKEKELCVKYFEQWSESDQVEFVEHLISQMCHYQHGHINSYLKPMLQRDFITALPARGLDHIAENILSYLDAKSLCAAELVCKEWYRVTSDGMLWKKLIERMVRTDSLWRGLAERRGWGQYLFKNKPPDGNAPPNSFYRALYPKIIQDIETIESNWRCGRHSLQRIHCRSGSGSGSGMDLGKKLLEAARAGQDDEVRILMANGADVNASDRGGGTPLHLAAAGGHLEIVEVLLKRGADVSAADLHGQSPLHLAAMVGHLEIVEVLLKYGADVNAKDTMGATPLHLAARSGHLEIVEELLKNGADMNAQDKFGKTTFDISTDNGNEDLAEILQKL
B5: recombinant polypeptide DDB2-K19 (N-DDB2 (second polypeptide)-linker peptide-K19 (first polypeptide)-C) (other)
chain: MGGLDYKDDDDKASAPKKRPETQKTSEIVLRPRNKRSRSPLELEPEAKKLCAKGSGPSRRCDSDCLWVGLAGPQILPPCRSIVRTLHQHKLGRASWPSVQQGLQQSFLHTLDSYRILQKAAPFDRRASGSGSGSGMDLGKKLLEAARAGQDDEVRILMANGADVNASDRGGGTPLHLAAAGGHLEIVEVLLKRGADVSAADLHGQSPLHLAAMVGHLEIVEVLLKYGADVNAKDTMGATPLHLAARSGHLEIVEELLKNGADMNAQDKFGKTTFDISTDNGNEDLAEILQKL
B6: recombinant polypeptide K19-CHIP (N-K19 (first polypeptide)-linker peptide-CHIP (second polypeptide)-C) (other)
chain: MDLGKKLLEAARAGQDDEVRILMANGADVNASDRGGGTPLHLAAAGGHLEIVEVLLKRGADVSAADLHGQSPLHLAAMVGHLEIVEVLLKYGADVNAKDTMGATPLHLAARSGHLEIVEELLKNGADMNAQDKFGKTTFDISTDNGNEDLAEILQKLSGSGSGSGRLNFGDDIPSALRIAKKKRWNSIEERRIHQESELHSYLSRLIAAERERELEECQRNHEGDEDDSHVRAQQACIEAKHDKYMADMDELFSQVDEKRKKRDIPDYLCGKISFELMREPCITPSGITYDRKDIEEHLQRVGHFDPVTRSPLTQEQLIPNLAMKEVIDAFISENGWVEDYGS
B7: recombinant polypeptide K19-SOCS2 (N-K19 (first polypeptide)-linker peptide-SOCS2 (second polypeptide)-C) (other)
chain: MDLGKKLLEAARAGQDDEVRILMANGADVNASDRGGGTPLHLAAAGGHLEIVEVLLKRGADVSAADLHGQSPLHLAAMVGHLEIVEVLLKYGADVNAKDTMGATPLHLAARSGHLEIVEELLKNGADMNAQDKFGKTTFDISTDNGNEDLAEILQKLSGSGSGSGPRNGTVHLYLTKPLYTSAPSLQHLCRLTINKCTGAIWGLPLPTRLKDYLEEYKFQVGS
B8: recombinant polypeptide K19-SPOP (N-K19 (first polypeptide)-linker peptide-SPOP (second polypeptide)-C) (other)
chain: MDLGKKLLEAARAGQDDEVRILMANGADVNASDRGGGTPLHLAAAGGHLEIVEVLLKRGADVSAADLHGQSPLHLAAMVGHLEIVEVLLKYGADVNAKDTMGATPLHLAARSGHLEIVEELLKNGADMNAQDKFGKTTFDISTDNGNEDLAEILQKLGSGSGSGSVNISGQNTMNMVKVPECRLADELGGLWENSRFTDCCLCVAGQEFQAHKAILAARSPVFSAMFEHEMEESKKNRVEINDVEPEVFKEMMCFIYTGKAPNLDKMADDLLAAADKYALERLKVMCEDALCSNLSVENAAEILILADLHSADQLKTQAVDFINYHASDVLETSGWKSMVVSHPHLVAEAYRSLASAQCPFLGPPRKRLKQS
B9: recombinant polypeptide FBW7-K19 (N-FBW7 (second polypeptide)-linker peptide-K19 (first polypeptide)-C) (other)
chain: MGGLDYKDDDDKASCVPRSGLILSCICLYCGVLLPVLLPNLPFLTCLSMSTLESVTYLPEKGLYCQRLPSSRTHGGTESLKGKNTENMGFYGTLKMIFYKMKRKLDHGSEVRSFSLGKKPCKVSEYTSTTGLVPCSATPTTFGDLRAANGQGQQRRRITSVQPPTGLQEWLKMFQSWSGPEKLLALDELIDSCEPTQVKHMMQVIEPQFQRDFISLLPKELALYVLSFLEPKDLLQAAQTCRYWRILAEDNLLWREKCKEEGIDEPLHIKRRKVIKPGFIHSPWKSAYIRQHRIDTNWRRGELKSPSGSGSGSGMDLGKKLLEAARAGQDDEVRILMANGADVNASDRGGGTPLHLAAAGGHLEIVEVLLKRGADVSAADLHGQSPLHLAAMVGHLEIVEVLLKYGADVNAKDTMGATPLHLAARSGHLEIVEELLKNGADMNAQDKFGKTTFDISTDNGNEDLAEILQKL

These binders were tested against KRAS protein (UniProt P01116 1-186, limits assumed) (assay: cell-based or functional assay).

In order of rising “Percentage of KRAS protein level (Western Blot, H358 cells, 6 hours after transfection; protein level of EV29-K19-VHKC as control)” value:
1. B4  19.3%
2. B3  20.4%
3. B8  22.4%
4. B1  28.2%
5. B6  28.3%
6. B2  39.8%
7. B9  45.9%
8. B7  47.3%
9. B5  52.6%
